Assay results taken from paper PMC5186407 (Journal of molecular biology, 2016).
Values belong to the molecule of their own block, whether it stands above or below them.

Experiments:
BAG3 Δ200–213 = BAG3 Δ200–213 (UniProt O95817); experiment: ITC
BAG3 Δ87–101 = BAG3 Δ87–101 (UniProt O95817); experiment: ITC
[1] = target: BAG3 with the first IPV motif mutated to GPG (IPV1) (UniProt O95817); experiment: ITC
Hsp70 NBD (Homo sapiens) = Hsp70 NBD (Homo sapiens) (UniProt P0DMV8); details: cited from earlier work
Sequence of Hsp70 NBD (Homo sapiens) (P0DMV8 2-386): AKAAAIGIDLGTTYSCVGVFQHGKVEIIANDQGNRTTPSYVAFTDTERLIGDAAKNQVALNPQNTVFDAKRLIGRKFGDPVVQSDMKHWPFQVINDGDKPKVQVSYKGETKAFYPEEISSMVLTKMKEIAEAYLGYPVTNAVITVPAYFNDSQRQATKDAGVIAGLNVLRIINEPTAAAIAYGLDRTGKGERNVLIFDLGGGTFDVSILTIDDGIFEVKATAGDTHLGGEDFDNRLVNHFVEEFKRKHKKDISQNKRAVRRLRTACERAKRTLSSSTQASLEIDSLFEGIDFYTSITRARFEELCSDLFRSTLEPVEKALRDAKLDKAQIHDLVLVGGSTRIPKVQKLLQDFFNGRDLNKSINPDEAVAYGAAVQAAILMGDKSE

[2] = target: Hsp27c, truncated Hsp27 with only the core α-crystallin domain (human); experiment: flow cytometry protein interaction assay
[3] = target: Hsp27-3D, triple phospho-mimetic mutant of Hsp27 (human) (UniProt P04792); experiment: flow cytometry protein interaction assay
BAG3 Δ87–101 & Δ200–213 = BAG3 Δ87–101 & Δ200–213 (UniProt O95817 1-575, Δ87–101 | Δ200–213, Alexa Fluor label in the FCPIA experiments); experiment: flow cytometry protein interaction assay

stoichiometry N (BAG3 Δ200–213): 1 Hsp27c:BAG3
stoichiometry N (BAG3 Δ87–101): 1 Hsp27c:BAG3
stoichiometry N [1]: 1 Hsp27c:BAG3
Molecule: Hsp27c, truncated Hsp27 with only the core α-crystallin domain (domain or fragment)

Molecule: BAG3 (from UniProt O95817)
Kd (Hsp70 NBD (Homo sapiens)): 0.01 µM

fold weakening of the affinity against BAG3 with both IPV motifs [2]: > 25 fold
Kd [3]: > 50 µM
Molecule: BAG3 Δ87–101 & Δ200–213 (from UniProt O95817 1-575) (natural protein)

Kd (BAG3 Δ87–101 & Δ200–213): > 50 µM
B1: Hsp20 (HSPB6) (natural protein, human, UniProt O14558 1-160, looked up)
chain: MEIPVPVQPSWLRRASAPLPGLSAPGRLFDQRFGEGLLEAELAALCPTTLAPYYLRAPSVALPVAQVPTDPGHFSVLLDVKHFSPEEIAVKVVGEHVEVHARHEERPDEHGFVAREFHRRYRLPPGVDPAAVTSALSPEGVLSIQAAPASAQAPPPAAAK
modifications: biotin (EZ-link NHS-Biotin) in the FCPIA experiments
